doi:10.1101/2021.12.16.472979v1

Substrate: N[C@@H](Cc1ccccc1)C(=O)O
Test: LC-MS decarboxylation assay, Michaelis-Menten fit
Type: biochemical, Enterococcus faecium
Conditions: 100 μM PLP, 200 mM sodium acetate pH 5.5, 100 nM enzyme, 37 °C

B1: Efm_TyrDC (Enterococcus faecium) (protein)
chain: MKDMDIKAVFIGDKAENGPVYKMLLNKMVDEHLGWRENYIPSDMPAISEGDKLTPDYLATRDHMIEVLDEVSQRLRAGSIPWHSAGRYWGQMNAETLMPALLAYNYAMLWNPNNVALESSMATSQMEAEVGQDFASLFNMADGWGHIAADGSIANLEGLWYARCIKSIPLAVKEVLPEKVKNMSEWALLNLSVEEILEMTESFTDEEMDEVKAASSRSGKNIQKLGKWLVPQTKHYSWMKALDICGVGLDQMVAIPVQEDYRMDINALEKTIRELADQKIPILGVVAVVGTTEEGQVDSVDKIIQLREKLKDEGIYFYLHVDAAYGGYARSLFLNEAGEFVPYASLAEFFEEHHVFHHYVTIDKEVYEGFRAISEADSVTIDPHKMGYVPYAAGGIVIKHKNMRNIISYFAPYVFEKSVKAPDMLGAYILEGSKAGATAAAVWTAHRVLPLNVTGYGQLIGASIEAAQRFREFLEQLHFTVKGKTIEVYPLNHPDFNMVNWVFKVQDCTDLNAINELNEKMFDRSSYMDGDVYGERFITSHTTFTQEDYGDSPIRFIERMGLSKEEWQKEQQITLLRAAIMTPYLNDDRIFNFYTKEIAKAMEKKLNEIIK
Question: With B1 as the protein, how does the Km read?
Answer: 8.5 mM
